From patent US20150344570A1 (published 2015) come the findings set out here.

Assay [1] has as its target T1, FcγRIIb extracellular domain with C-terminal His tag (human, UniProt P31994 43-217).
T1 construct: extracellular domain; Soluble receptor used as analyte in Biacore; also called FcgRIIb; CD32B
T1 sequence (looked up): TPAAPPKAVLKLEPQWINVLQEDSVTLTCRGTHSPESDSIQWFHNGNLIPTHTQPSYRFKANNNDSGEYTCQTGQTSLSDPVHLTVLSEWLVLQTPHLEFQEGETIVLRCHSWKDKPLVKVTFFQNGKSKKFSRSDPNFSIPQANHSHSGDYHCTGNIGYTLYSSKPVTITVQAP
The assay is described as follows: SPR Biacore, antibody captured on antigen-peptide chip, FcγR as analyte. (In general: In SPR one partner is held on a chip, and binding of the other changes the refractive index at the surface.)

For assay [2], the target named is T2, FcγRIa extracellular domain with C-terminal His tag (human, UniProt P12314 16-292).
T2 construct: extracellular domain; Soluble receptor used as analyte in Biacore; also called FcgRI; FcgRIa
T2 sequence (P12314 16-292): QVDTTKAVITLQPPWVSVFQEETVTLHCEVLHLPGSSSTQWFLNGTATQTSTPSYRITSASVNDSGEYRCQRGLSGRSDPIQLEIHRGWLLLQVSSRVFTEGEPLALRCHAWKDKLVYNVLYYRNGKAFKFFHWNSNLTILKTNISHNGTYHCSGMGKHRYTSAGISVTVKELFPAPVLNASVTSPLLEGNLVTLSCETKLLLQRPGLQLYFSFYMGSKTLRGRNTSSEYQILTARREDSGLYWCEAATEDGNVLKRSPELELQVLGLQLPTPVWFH
The description is as above.

B1: GpH7-A5/GpH7-B3 variant E269_13S/GpL16-k0 (antibody, human IgG1, kappa)
heavy 1: not shown
heavy 2: not shown
light: DIVMTQSPLSLPVTPGEPASISCQASESLVHSNRNTYLHWYLQKPGQSPQLLIYKVSNRFSGVPDRFSGSGSGTDFTLKISRVEAEDVGVYYCSQNTHVPPTFGQGTKVEIERTVAAPSVFIFPPSDEQLKSGTASVVCLLNNFYPREAKVQWKVDNALQSGNSQESVTEQDSKDSTYSLSSTLTLSKADYEKHKVYACEVTHQGLSSPVTKSFNRGEC
notes: Heterodimerized anti-glypican-3 IgG1; mutation in the GpH7-B3 chain only; also called He Ab E269S
On to B1, for which, in assay [1], the He/Con_2b was 47.8 relative, GpH7-A5/GpH7-B3/GpL16-k0 = 100. The He/Con_1a in assay [2] was 103 relative, GpH7-A5/GpH7-B3/GpL16-k0 = 100.

B2: GpH7-A5/GpH7-B3 variant S267_15Y/GpL16-k0 (antibody, human IgG1, kappa)
heavy 1: not shown
heavy 2: not shown
light: DIVMTQSPLSLPVTPGEPASISCQASESLVHSNRNTYLHWYLQKPGQSPQLLIYKVSNRFSGVPDRFSGSGSGTDFTLKISRVEAEDVGVYYCSQNTHVPPTFGQGTKVEIERTVAAPSVFIFPPSDEQLKSGTASVVCLLNNFYPREAKVQWKVDNALQSGNSQESVTEQDSKDSTYSLSSTLTLSKADYEKHKVYACEVTHQGLSSPVTKSFNRGEC
notes: Heterodimerized anti-glypican-3 IgG1; mutation in the GpH7-B3 chain only; also called He Ab S267Y
In the case of B2, the He/Con_2b in assay [1] was 37.9 relative, GpH7-A5/GpH7-B3/GpL16-k0 = 100. The He/Con_1a in assay [2] is 94.2 relative, GpH7-A5/GpH7-B3/GpL16-k0 = 100.

B3: GpH7-A5/GpH7-B3 variant H268_07I/GpL16-k0 (antibody, human IgG1, kappa)
heavy 1: not shown
heavy 2: not shown
light: DIVMTQSPLSLPVTPGEPASISCQASESLVHSNRNTYLHWYLQKPGQSPQLLIYKVSNRFSGVPDRFSGSGSGTDFTLKISRVEAEDVGVYYCSQNTHVPPTFGQGTKVEIERTVAAPSVFIFPPSDEQLKSGTASVVCLLNNFYPREAKVQWKVDNALQSGNSQESVTEQDSKDSTYSLSSTLTLSKADYEKHKVYACEVTHQGLSSPVTKSFNRGEC
notes: Heterodimerized anti-glypican-3 IgG1; mutation in the GpH7-B3 chain only; also called He Ab H268I
Turning to B3, in assay [1], the He/Con_2b is 88.9 relative, GpH7-A5/GpH7-B3/GpL16-k0 = 100. Also, in assay [2], the He/Con_1a was 108 relative, GpH7-A5/GpH7-B3/GpL16-k0 = 100.

B4: GpH7-A5/GpH7-B3 variant S267_20W/GpL16-k0 (antibody, human IgG1, kappa)
heavy 1: not shown
heavy 2: not shown
light: DIVMTQSPLSLPVTPGEPASISCQASESLVHSNRNTYLHWYLQKPGQSPQLLIYKVSNRFSGVPDRFSGSGSGTDFTLKISRVEAEDVGVYYCSQNTHVPPTFGQGTKVEIERTVAAPSVFIFPPSDEQLKSGTASVVCLLNNFYPREAKVQWKVDNALQSGNSQESVTEQDSKDSTYSLSSTLTLSKADYEKHKVYACEVTHQGLSSPVTKSFNRGEC
notes: Heterodimerized anti-glypican-3 IgG1; mutation in the GpH7-B3 chain only; also called He Ab S267W
On to B4, for which the He/Con_2b in assay [1] is 57.2 relative, GpH7-A5/GpH7-B3/GpL16-k0 = 100. The He/Con_1a in assay [2] is 99.4 relative, GpH7-A5/GpH7-B3/GpL16-k0 = 100.

B5: GpH7-A5/GpH7-B3 variant E269_18N/GpL16-k0 (antibody, human IgG1, kappa)
heavy 1: not shown
heavy 2: not shown
light: DIVMTQSPLSLPVTPGEPASISCQASESLVHSNRNTYLHWYLQKPGQSPQLLIYKVSNRFSGVPDRFSGSGSGTDFTLKISRVEAEDVGVYYCSQNTHVPPTFGQGTKVEIERTVAAPSVFIFPPSDEQLKSGTASVVCLLNNFYPREAKVQWKVDNALQSGNSQESVTEQDSKDSTYSLSSTLTLSKADYEKHKVYACEVTHQGLSSPVTKSFNRGEC
notes: Heterodimerized anti-glypican-3 IgG1; mutation in the GpH7-B3 chain only; also called He Ab E269N
Take B5: in assay [1], the He/Con_2b is 44.8 relative, GpH7-A5/GpH7-B3/GpL16-k0 = 100. Also, the He/Con_1a in assay [2] is 102 relative, GpH7-A5/GpH7-B3/GpL16-k0 = 100.

B6: GpH7-A5/GpH7-B3 variant H268_08L/GpL16-k0 (antibody, human IgG1, kappa)
heavy 1: not shown
heavy 2: not shown
light: DIVMTQSPLSLPVTPGEPASISCQASESLVHSNRNTYLHWYLQKPGQSPQLLIYKVSNRFSGVPDRFSGSGSGTDFTLKISRVEAEDVGVYYCSQNTHVPPTFGQGTKVEIERTVAAPSVFIFPPSDEQLKSGTASVVCLLNNFYPREAKVQWKVDNALQSGNSQESVTEQDSKDSTYSLSSTLTLSKADYEKHKVYACEVTHQGLSSPVTKSFNRGEC
notes: Heterodimerized anti-glypican-3 IgG1; mutation in the GpH7-B3 chain only; also called He Ab H268L
As for B6, in assay [1], the He/Con_2b was 67.8 relative, GpH7-A5/GpH7-B3/GpL16-k0 = 100. Also, in assay [2], the He/Con_1a was 107 relative, GpH7-A5/GpH7-B3/GpL16-k0 = 100.

B7: GpH7-A5/GpH7-B3 variant H268_14T/GpL16-k0 (antibody, human IgG1, kappa)
heavy 1: not shown
heavy 2: not shown
light: DIVMTQSPLSLPVTPGEPASISCQASESLVHSNRNTYLHWYLQKPGQSPQLLIYKVSNRFSGVPDRFSGSGSGTDFTLKISRVEAEDVGVYYCSQNTHVPPTFGQGTKVEIERTVAAPSVFIFPPSDEQLKSGTASVVCLLNNFYPREAKVQWKVDNALQSGNSQESVTEQDSKDSTYSLSSTLTLSKADYEKHKVYACEVTHQGLSSPVTKSFNRGEC
notes: Heterodimerized anti-glypican-3 IgG1; mutation in the GpH7-B3 chain only; also called He Ab H268T
Regarding B7, the He/Con_2b in assay [1] is 86 relative, GpH7-A5/GpH7-B3/GpL16-k0 = 100. In addition, the He/Con_1a in assay [2] was 112 relative, GpH7-A5/GpH7-B3/GpL16-k0 = 100.

B8: GpH7-A5/GpH7-B3 variant E269_14T/GpL16-k0 (antibody, human IgG1, kappa)
heavy 1: not shown
heavy 2: not shown
light: DIVMTQSPLSLPVTPGEPASISCQASESLVHSNRNTYLHWYLQKPGQSPQLLIYKVSNRFSGVPDRFSGSGSGTDFTLKISRVEAEDVGVYYCSQNTHVPPTFGQGTKVEIERTVAAPSVFIFPPSDEQLKSGTASVVCLLNNFYPREAKVQWKVDNALQSGNSQESVTEQDSKDSTYSLSSTLTLSKADYEKHKVYACEVTHQGLSSPVTKSFNRGEC
notes: Heterodimerized anti-glypican-3 IgG1; mutation in the GpH7-B3 chain only; also called He Ab E269T
B8: in assay [1], the He/Con_2b was 50.6 relative, GpH7-A5/GpH7-B3/GpL16-k0 = 100. Besides, the He/Con_1a in assay [2] was 106 relative, GpH7-A5/GpH7-B3/GpL16-k0 = 100.

B9: GpH7-A5/GpH7-B3 variant S267_04F/GpL16-k0 (antibody, human IgG1, kappa)
heavy 1: not shown
heavy 2: not shown
light: DIVMTQSPLSLPVTPGEPASISCQASESLVHSNRNTYLHWYLQKPGQSPQLLIYKVSNRFSGVPDRFSGSGSGTDFTLKISRVEAEDVGVYYCSQNTHVPPTFGQGTKVEIERTVAAPSVFIFPPSDEQLKSGTASVVCLLNNFYPREAKVQWKVDNALQSGNSQESVTEQDSKDSTYSLSSTLTLSKADYEKHKVYACEVTHQGLSSPVTKSFNRGEC
notes: Heterodimerized anti-glypican-3 IgG1; mutation in the GpH7-B3 chain only; also called He Ab S267F
Turning to B9, in assay [1], the He/Con_2b was 48 relative, GpH7-A5/GpH7-B3/GpL16-k0 = 100. Further, the He/Con_1a in assay [2] was 97.7 relative, GpH7-A5/GpH7-B3/GpL16-k0 = 100.
